# In IntAct's records for PubMed 31515488:
# B1: NADPH-dependent diflavin oxidoreductase 1 (Homo sapiens), Q9UHB4 (parent)
# chain: MPSPQLLVLFGSQTGTAQDVSERLGREARRRRLGCRVQALDSYPVVNLINEPLVIFVCATTGQGDPPDNMKNFWRFIFRKNLPSTALCQMDFAVLGLGDSSYAKFNFVAKKLHRRLLQLGGSALLPVCLGDDQHELGPDAAVDPWLRDLWDRVLGLYPPPPGLTEIPPGVPLPSKFTLLFLQEAPSTGSEGQRVAHPGSQEPPSESKPFLAPMISNQRVTGPSHFQDVRLIEFDILGSGISFAAGDVVLIQPSNSAAHVQRFCQVLGLDPDQLFMLQPREPDVSSPTRLPQPCSMRHLVSHYLDIASVPRRSFFELLACLSLHELEREKLLEFSSAQGQEELFEYCNRPRRTILEVLCDFPHTAAAIPPDYLLDLIPVIRPRAFSIASSLLTHPSRLQILVAVVQFQTRLKEPRRGLCSSWLASLDPGQGPVRVPLWVRPGSLAFPETPDTPVIMVGPGTGVAPFRAAIQERVAQGQTGNFLFFGCRWRDQDFYWEAEWQELEKRDCLTLIPAFSREQEQKVYVQHRLRELGSLVWELLDRQGAYFYLAGNAKSMPADVSEALMSIFQEEGGLCSPDAAAYLARLQQTRRFQTETWA
# B2: Protein unc-45 homolog A (Homo sapiens), Q9H3U1 (parent)
# chain: MTVSGPGTPEPRPATPGASSVEQLRKEGNELFKCGDYGGALAAYTQALGLDATPQDQAVLHRNRAACHLKLEDYDKAETEASKAIEKDGGDVKALYRRSQALEKLGRLDQAVLDLQRCVSLEPKNKVFQEALRNIGGQIQEKVRYMSSTDAKVEQMFQILLDPEEKGTEKKQKASQNLVVLAREDAGAEKIFRSNGVQLLQRLLDMGETDLMLAALRTLVGICSEHQSRTVATLSILGTRRVVSILGVESQAVSLAACHLLQVMFDALKEGVKKGFRGKEGAIIVDPARELKVLISNLLDLLTEVGVSGQGRDNALTLLIKAVPRKSLKDPNNSLTLWVIDQGLKKILEVGGSLQDPPGELAVTANSRMSASILLSKLFDDLKCDAERENFHRLCENYIKSWFEGQGLAGKLRAIQTVSCLLQGPCDAGNRALELSGVMESVIALCASEQEEEQLVAVEALIHAAGKAKRASFITANGVSLLKDLYKCSEKDSIRIRALVGLCKLGSAGGTDFSMKQFAEGSTLKLAKQCRKWLCNDQIDAGTRRWAVEGLAYLTFDADVKEEFVEDAAALKALFQLSRLEERSVLFAVASALVNCTNSYDYEEPDPKMVELAKYAKQHVPEQHPKDKPSFVRARVKKLLAAGVVSAMVCMVKTESPVLTSSCRELLSRVFLALVEEVEDRGTVVAQGGGRALIPLALEGTDVGQTKAAQALAKLTITSNPEMTFPGERIYEVVRPLVSLLHLNCSGLQNFEALMALTNLAGISERLRQKILKEKAVPMIEGYMFEEHEMIRRAATECMCNLAMSKEVQDLFEAQGNDRLKLLVLYSGEDDELLQRAAAGGLAMLTSMRPTLCSRIPQVTTHWLEILQALLLSSNQELQHRGAVVVLNMVEASREIASTLMESEMMEILSVLAKGDHSPVTRAAAACLDKAVEYGLIQPNQDGE
# B3: Pleckstrin homology domain-containing family N member 1 (Homo sapiens), Q494U1 (parent)
# chain: MGNSHCVPQAPRRLRASFSRKPSLKGNREDSARMSAGLPGPEAARSGDAAANKLFHYIPGTDILDLENQRENLEQPFLSVFKKGRRRVPVRNLGKVVHYAKVQLRFQHSQDVSDCYLELFPAHLYFQAHGSEGLTFQGLLPLTELSVCPLEGSREHAFQITGPLPAPLLVLCPSRAELDRWLYHLEKQTALLGGPRRCHSAPPQRRLTRLRTASGHEPGGSAVCASRVKLQHLPAQEQWDRLLVLYPTSLAIFSEELDGLCFKGELPLRAVHINLEEKEKQIRSFLIEGPLINTIRVVCASYEDYGHWLLCLRAVTHREGAPPLPGAESFPGSQVMGSGRGSLSSGGQTSWDSGCLAPPSTRTSHSLPESSVPSTVGCSSQHTPDQANSDRASIGRRRTELRRSGSSRSPGSKARAEGRGPVTPLHLDLTQLHRLSLESSPDAPDHTSETSHSPLYADPYTPPATSHRRVTDVRGLEEFLSAMQSARGPTPSSPLPSVPVSVPASDPRSCSSGPAGPYLLSKKGALQSRAAQRHRGSAKDGGPQPPDAPQLVSSAREGSPEPWLPLTDGRSPRRSRDPGYDHLWDETLSSSHQKCPQLGGPEASGGLVQWI
# partner: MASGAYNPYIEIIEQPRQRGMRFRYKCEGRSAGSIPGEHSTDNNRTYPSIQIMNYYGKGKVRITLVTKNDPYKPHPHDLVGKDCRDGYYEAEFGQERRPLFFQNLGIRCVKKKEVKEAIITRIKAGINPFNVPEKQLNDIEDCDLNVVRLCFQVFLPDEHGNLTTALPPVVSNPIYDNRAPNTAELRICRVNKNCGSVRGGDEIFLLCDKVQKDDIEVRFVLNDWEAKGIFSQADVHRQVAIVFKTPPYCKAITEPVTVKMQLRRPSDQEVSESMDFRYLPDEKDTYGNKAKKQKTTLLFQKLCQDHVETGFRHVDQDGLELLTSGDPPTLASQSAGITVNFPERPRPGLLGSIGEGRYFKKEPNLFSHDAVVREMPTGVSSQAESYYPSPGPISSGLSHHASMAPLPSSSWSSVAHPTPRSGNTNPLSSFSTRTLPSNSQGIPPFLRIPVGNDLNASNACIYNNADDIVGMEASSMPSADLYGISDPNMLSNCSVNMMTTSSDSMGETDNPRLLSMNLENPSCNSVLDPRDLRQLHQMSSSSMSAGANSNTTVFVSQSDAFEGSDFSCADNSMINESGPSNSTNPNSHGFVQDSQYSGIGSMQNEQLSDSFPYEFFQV
# B4: Cyclin-dependent kinase 4 (Homo sapiens), P11802 (parent)
# chain: MATSRYEPVAEIGVGAYGTVYKARDPHSGHFVALKSVRVPNGGGGGGGLPISTVREVALLRRLEAFEHPNVVRLMDVCATSRTDREIKVTLVFEHVDQDLRTYLDKAPPPGLPAETIKDLMRQFLRGLDFLHANCIVHRDLKPENILVTSGGTVKLADFGLARIYSYQMALTPVVVTLWYRAPEVLLQSTYATPVDMWSVGCIFAEMFRRKPLFCGNSEADQLGKIFDLIGLPPEDDWPRDVSLPRGAFPPRGPRPVQSVVPEMEESGAQLLLEMLTFNPHKRISAFRALQHSYLHKDEGNPE
# Variants of: B1
# Settings: with mtus2_human MTUS2, Q5JR59
# Sequence of mtus2_human MTUS2, Q5JR59 (Q5JR59 whole entry): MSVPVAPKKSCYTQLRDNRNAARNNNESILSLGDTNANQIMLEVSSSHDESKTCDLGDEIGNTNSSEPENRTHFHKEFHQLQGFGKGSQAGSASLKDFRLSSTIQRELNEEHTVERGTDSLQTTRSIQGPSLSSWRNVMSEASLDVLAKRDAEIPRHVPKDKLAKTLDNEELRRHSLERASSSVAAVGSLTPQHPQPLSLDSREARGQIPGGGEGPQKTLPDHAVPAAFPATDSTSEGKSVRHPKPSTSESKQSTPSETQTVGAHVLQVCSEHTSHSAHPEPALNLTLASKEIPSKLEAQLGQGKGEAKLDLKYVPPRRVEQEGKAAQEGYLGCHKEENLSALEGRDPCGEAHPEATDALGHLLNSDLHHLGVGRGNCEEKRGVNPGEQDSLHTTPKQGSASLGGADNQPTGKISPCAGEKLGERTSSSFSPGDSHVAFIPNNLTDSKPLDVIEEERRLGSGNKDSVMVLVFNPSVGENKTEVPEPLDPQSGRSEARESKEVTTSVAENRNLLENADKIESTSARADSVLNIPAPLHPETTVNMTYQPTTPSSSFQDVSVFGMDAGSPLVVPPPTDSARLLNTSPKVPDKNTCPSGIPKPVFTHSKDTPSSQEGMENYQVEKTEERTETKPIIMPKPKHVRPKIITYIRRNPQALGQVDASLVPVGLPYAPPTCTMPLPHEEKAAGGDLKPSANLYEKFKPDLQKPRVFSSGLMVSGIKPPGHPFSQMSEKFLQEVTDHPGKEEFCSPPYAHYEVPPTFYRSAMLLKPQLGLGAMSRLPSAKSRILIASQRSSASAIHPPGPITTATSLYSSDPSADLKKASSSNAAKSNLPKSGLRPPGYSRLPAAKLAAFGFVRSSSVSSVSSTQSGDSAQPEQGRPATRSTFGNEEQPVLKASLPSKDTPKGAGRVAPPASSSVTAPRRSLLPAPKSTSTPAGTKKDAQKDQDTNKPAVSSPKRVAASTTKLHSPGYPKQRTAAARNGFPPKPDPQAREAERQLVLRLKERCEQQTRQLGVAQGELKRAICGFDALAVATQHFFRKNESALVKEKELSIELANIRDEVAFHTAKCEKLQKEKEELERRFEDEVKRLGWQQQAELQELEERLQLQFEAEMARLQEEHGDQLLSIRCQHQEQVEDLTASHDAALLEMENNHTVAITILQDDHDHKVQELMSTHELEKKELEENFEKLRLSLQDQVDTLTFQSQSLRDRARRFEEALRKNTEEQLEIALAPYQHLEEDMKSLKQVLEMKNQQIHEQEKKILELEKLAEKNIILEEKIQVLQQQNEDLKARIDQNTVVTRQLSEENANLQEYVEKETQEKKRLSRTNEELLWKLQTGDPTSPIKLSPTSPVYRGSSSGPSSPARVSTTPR
row,Variant,effect of a mutation on the interaction
1,P281L,with no effect

# Variants of: B1
# Settings: with ccd33_human CCDC33, Q8N5R6
# Sequence of ccd33_human CCDC33, Q8N5R6 (Q8N5R6 whole entry): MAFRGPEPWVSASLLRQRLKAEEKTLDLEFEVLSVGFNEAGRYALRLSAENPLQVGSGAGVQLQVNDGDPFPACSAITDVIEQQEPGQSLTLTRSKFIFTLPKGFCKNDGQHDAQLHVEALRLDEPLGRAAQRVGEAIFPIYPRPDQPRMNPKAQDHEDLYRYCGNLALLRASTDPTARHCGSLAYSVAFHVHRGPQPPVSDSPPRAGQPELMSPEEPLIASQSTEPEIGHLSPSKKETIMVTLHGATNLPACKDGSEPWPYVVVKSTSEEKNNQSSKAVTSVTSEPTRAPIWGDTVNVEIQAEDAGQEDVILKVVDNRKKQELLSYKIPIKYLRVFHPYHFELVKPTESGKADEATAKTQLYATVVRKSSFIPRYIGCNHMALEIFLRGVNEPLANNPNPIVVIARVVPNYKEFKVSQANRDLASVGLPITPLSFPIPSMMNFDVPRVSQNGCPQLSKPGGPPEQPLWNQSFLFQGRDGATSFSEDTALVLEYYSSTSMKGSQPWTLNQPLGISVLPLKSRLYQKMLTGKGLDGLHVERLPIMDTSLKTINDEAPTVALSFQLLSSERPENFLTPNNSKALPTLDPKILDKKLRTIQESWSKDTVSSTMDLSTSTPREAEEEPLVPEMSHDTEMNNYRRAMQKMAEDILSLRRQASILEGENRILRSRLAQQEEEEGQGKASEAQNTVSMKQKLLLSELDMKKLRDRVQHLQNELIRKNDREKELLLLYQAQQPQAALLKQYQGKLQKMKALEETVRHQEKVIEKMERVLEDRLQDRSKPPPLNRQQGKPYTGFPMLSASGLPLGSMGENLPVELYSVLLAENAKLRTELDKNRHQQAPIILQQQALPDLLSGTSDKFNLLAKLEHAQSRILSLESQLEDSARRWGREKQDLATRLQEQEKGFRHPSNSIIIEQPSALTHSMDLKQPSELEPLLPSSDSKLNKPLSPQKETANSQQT
row,Variant,effect of a mutation on the interaction
1,V153I,with no effect

# Variants of: B1
# Settings: with cpin1_human CIAPIN1, Q6FI81
# Sequence of cpin1_human CIAPIN1, Q6FI81 (Q6FI81 whole entry): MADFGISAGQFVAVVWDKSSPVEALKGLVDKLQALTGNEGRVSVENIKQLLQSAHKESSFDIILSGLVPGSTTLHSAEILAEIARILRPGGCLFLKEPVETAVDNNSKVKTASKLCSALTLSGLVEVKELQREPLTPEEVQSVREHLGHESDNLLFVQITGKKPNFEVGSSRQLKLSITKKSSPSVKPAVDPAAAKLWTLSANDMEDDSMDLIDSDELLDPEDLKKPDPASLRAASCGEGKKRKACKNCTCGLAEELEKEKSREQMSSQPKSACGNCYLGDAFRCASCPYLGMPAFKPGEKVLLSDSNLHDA
row,Variant,effect of a mutation on the interaction
1,V153I,with no effect

# Variants of: B1
# Settings: with itf2_human TCF4, P15884
# Sequence of itf2_human TCF4, P15884 (P15884 whole entry): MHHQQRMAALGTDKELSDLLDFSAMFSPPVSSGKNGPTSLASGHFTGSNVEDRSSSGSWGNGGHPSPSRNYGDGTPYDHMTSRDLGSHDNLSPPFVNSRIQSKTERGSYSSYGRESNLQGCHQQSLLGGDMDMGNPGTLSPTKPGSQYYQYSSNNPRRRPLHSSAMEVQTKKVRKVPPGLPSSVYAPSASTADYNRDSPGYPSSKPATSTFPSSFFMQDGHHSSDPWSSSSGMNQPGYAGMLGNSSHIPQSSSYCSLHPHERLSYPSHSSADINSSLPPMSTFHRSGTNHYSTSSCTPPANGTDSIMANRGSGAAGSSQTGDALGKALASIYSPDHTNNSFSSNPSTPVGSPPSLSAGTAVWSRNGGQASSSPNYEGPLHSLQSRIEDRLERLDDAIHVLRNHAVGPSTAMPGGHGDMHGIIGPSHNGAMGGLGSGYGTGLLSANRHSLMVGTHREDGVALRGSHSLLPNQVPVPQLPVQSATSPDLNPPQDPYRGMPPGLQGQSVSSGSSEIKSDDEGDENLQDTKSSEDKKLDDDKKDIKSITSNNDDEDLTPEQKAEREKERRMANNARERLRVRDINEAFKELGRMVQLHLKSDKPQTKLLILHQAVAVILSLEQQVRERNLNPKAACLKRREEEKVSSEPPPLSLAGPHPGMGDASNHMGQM
row,Variant,effect of a mutation on the interaction
1,V153I,with no effect

# Variants of: B2
# Settings: with max_human MAX
row,Variant,effect of a mutation on the interaction
1,Q251E,with no effect

# Variants of: B2
# Settings: with trim1_human MID2, Q9UJV3
# Sequence of trim1_human MID2, Q9UJV3 (Q9UJV3 whole entry): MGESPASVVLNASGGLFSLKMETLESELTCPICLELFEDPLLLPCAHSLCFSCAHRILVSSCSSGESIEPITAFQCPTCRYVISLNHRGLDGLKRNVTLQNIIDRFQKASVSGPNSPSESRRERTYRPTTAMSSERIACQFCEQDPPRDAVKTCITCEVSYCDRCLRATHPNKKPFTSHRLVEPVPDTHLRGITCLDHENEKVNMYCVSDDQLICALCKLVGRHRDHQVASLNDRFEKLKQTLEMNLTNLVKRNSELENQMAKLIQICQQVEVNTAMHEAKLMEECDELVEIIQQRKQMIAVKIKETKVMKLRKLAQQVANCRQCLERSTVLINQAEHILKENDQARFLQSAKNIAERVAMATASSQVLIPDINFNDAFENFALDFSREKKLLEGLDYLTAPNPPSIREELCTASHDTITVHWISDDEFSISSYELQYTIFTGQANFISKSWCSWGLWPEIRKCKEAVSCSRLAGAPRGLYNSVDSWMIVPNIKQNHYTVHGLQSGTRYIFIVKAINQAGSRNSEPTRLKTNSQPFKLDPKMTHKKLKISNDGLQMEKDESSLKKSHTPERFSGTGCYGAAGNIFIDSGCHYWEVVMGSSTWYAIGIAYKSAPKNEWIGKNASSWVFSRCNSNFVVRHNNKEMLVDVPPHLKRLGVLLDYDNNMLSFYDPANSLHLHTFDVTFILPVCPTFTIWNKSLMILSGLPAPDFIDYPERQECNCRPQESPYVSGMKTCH
row,Variant,effect of a mutation on the interaction
1,T796M,with no effect

# Variants of: B3
# Settings: with rel_human REL
row,Variant,effect of a mutation on the interaction
1,R487P,with no effect

# Variants of: B4
# Settings: with ccnd1_human CCND1, P24385
# Sequence of ccnd1_human CCND1, P24385 (P24385 whole entry): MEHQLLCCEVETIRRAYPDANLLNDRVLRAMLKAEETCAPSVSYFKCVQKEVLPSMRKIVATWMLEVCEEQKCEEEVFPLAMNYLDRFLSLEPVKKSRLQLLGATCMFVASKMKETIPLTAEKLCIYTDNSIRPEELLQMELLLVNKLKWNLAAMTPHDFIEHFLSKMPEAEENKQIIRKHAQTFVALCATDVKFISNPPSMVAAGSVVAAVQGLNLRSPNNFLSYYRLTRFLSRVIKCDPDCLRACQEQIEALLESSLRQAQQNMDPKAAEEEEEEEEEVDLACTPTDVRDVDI
row,Variant,effect of a mutation on the interaction
1,R24H,with no effect
2,S52N,with no effect
3,R255H,with no effect

# Variants of: B4
# Settings: with cdn2b_human CDKN2B
row,Variant,effect of a mutation on the interaction
1,S52N,with no effect

# Variants of: B4
# Settings: with ccnd3_human CCND3, P30281
# Sequence of ccnd3_human CCND3, P30281 (P30281 whole entry): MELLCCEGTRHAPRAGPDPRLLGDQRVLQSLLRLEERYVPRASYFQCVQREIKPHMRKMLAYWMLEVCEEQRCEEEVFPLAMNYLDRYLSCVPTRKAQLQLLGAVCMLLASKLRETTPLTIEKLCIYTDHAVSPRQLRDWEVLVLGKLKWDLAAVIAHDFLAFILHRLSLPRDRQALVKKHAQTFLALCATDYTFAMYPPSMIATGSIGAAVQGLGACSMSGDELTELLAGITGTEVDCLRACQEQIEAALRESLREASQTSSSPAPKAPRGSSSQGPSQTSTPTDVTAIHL
row,Variant,effect of a mutation on the interaction
1,S52N,with no effect
2,R255H,with no effect

# Variants of: B4
# Settings: with cdn2c_human CDKN2C
row,Variant,effect of a mutation on the interaction
1,S52N,with no effect
2,R255H,with no effect

# Variants of: B4
# Settings: with ccnd1_human CCND1, P24385
# Remark: another data set of the same source
row,Variant,effect of a mutation on the interaction
1,V174G,with no effect
2,R255C,with no effect
3,K22R,with no effect

# Variants of: B4
# Settings: with ccnd2_human CCND2, P30279
# Sequence of ccnd2_human CCND2, P30279 (P30279 whole entry): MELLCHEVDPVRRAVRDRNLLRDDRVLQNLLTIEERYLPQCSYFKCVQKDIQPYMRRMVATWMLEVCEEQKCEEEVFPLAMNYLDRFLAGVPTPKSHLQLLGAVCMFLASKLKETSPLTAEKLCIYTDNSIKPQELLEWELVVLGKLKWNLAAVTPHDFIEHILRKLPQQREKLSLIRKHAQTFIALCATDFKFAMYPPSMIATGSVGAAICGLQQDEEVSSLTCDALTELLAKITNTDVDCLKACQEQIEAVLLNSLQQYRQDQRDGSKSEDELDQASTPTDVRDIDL
row,Variant,effect of a mutation on the interaction
1,V174G,disrupting interaction strength
2,R255C,with no effect
3,K22R,with no effect

# Variants of: B4
# Settings: with cdn2c_human CDKN2C
# Remark: another data set of the same source
row,Variant,effect of a mutation on the interaction
1,V174G,with no effect
2,R255C,with no effect
3,K22R,with no effect

# Variants of: B4
# Settings: with ccnd3_human CCND3, P30281
# Remark: another data set of the same source
row,Variant,effect of a mutation on the interaction
1,V174G,with no effect
2,R255C,with no effect
3,K22R,with no effect

# Variants of: B4
# Settings: with ccnd2_human CCND2, P30279
# Remark: another data set of the same source
row,Variant,effect of a mutation on the interaction
1,R255H,with no effect
